Source: the RNAGym collection of RNA variant scans (doi:10.1093/molbev/msab373)

B1: Azoarcus group I ribozyme (parent)
chain: GUGCCUUGCGCCGGGAAACCACGCAAGGGAUGGUGUCAAAUUCGGCGAAACCUAAGCGCCCGCCCGGGCGUAUGGCAACGCCGAGCCAAGCUUCGGCGCCUGCGCCGAUGAAGGUGUAGAGACUAGACGGCACCCACCUAAGGCAAACGCUAUGGUGAAGGCAUAGUCCAGGGAGUGGCGAAAGUCACACAAACCGG

Variants of: B1
Experiment: reverse-splicing fitness (ratio to wild type); higher = more active; in vitro selection; Mg2+ level not given
Method in brief: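 An in vitro group I ribozyme library with randomized positions was T7-transcribed and gel-purified. In triplicate, 10 pmol RNA in EPPS pH 7.5 was reacted with 50 pmoles of a 30-nt RNA substrate for 1 h at 37 °C across several added MgCl2 levels (1–48 mM), then stopped with EDTA. Products were reverse transcribed from a substrate-complementary primer, PCR-amplified and sequenced (HiSeq 4000). Fitness is a variant's read proportion after selection over that before, normalised to wild type.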

Which reverse-splicing fitness does the source give for C82A A111C C150U C169G U176C here?
Its reverse-splicing fitness is 0.0175.

For C82A A111C C150U C169G U176A, which reverse-splicing fitness is on record?
The reverse-splicing fitness was 0.013.

Which reverse-splicing fitness does the source give for C82A A111C C150U C169G U176G here?
Its reverse-splicing fitness is 0.00899.

With C82A A111C A145C C169A U176G as the variant, how does the reverse-splicing fitness read?
Its reverse-splicing fitness is 0.00693.

For C82A A111C A145C C169A U176C, which reverse-splicing fitness is on record?
The reverse-splicing fitness was 0.00942.

With C82A A111C A145C C169A U176A as the variant, how does the reverse-splicing fitness read?
Its reverse-splicing fitness is 0.0135.

Which reverse-splicing fitness does the source give for C82A A111C A145U C150U U176C here?
Its reverse-splicing fitness is 0.0623.

Which reverse-splicing fitness does the source give for C82A A111C A145U C150U U176A here?
The reverse-splicing fitness was 0.0486.

For C82A A111C A145U C150U U176G, which reverse-splicing fitness is on record?
Its reverse-splicing fitness is 0.0141.

With C82A A111C A145U C169A U176A as the variant, how does the reverse-splicing fitness read?
The reverse-splicing fitness was 0.0138.

For C82A A111C A145U C169A U176C, which reverse-splicing fitness is on record?
Its reverse-splicing fitness is 0.0156.

For C82A A111C A145U C169A U176G, which reverse-splicing fitness is on record?
The reverse-splicing fitness was 0.0095.

Which reverse-splicing fitness does the source give for C82A A111C A145U C150G C169U U176G here?
The reverse-splicing fitness was 0.00827.

With C82A A111C A145U C150G C169U U176C as the variant, how does the reverse-splicing fitness read?
The reverse-splicing fitness was 0.0113.

With C82A A111C A145U C150G C169U U176A as the variant, how does the reverse-splicing fitness read?
Its reverse-splicing fitness is 0.00845.

For C82A A111C A120U C150U C169G, which reverse-splicing fitness is on record?
Its reverse-splicing fitness is 0.00537.

Which reverse-splicing fitness does the source give for C82A A111C A120U C150U C169U here?
Its reverse-splicing fitness is 0.00638.

For C82A A111C A120U C150U C169A, which reverse-splicing fitness is on record?
The reverse-splicing fitness was 0.0052.

Which reverse-splicing fitness does the source give for C82A A111C A145C here?
Its reverse-splicing fitness is 0.212.

Which reverse-splicing fitness does the source give for C82A A111C A145G here?
Its reverse-splicing fitness is 0.258.

Which reverse-splicing fitness does the source give for C82A A111C A145U here?
The reverse-splicing fitness was 0.229.

With C82A A111C A145U C150G C169U as the variant, how does the reverse-splicing fitness read?
The reverse-splicing fitness was 0.00887.

With C82A A111C A145U C150G C169A as the variant, how does the reverse-splicing fitness read?
Its reverse-splicing fitness is 0.0091.

Which reverse-splicing fitness does the source give for C82A A111C A145U C150G C169G here?
The reverse-splicing fitness was 0.00748.

Which reverse-splicing fitness does the source give for C82A A111C C150U C169U U176C here?
Its reverse-splicing fitness is 0.0147.

With C82A A111C C150U C169U U176A as the variant, how does the reverse-splicing fitness read?
Its reverse-splicing fitness is 0.0165.

For C82A A111C C150U C169U U176G, which reverse-splicing fitness is on record?
The reverse-splicing fitness was 0.00804.

With C82A A111C A120U C150G C169U U176G as the variant, how does the reverse-splicing fitness read?
The reverse-splicing fitness was 0.00331.

For C82A A111C A120U C150G C169U U176C, which reverse-splicing fitness is on record?
The reverse-splicing fitness was 0.00486.

Which reverse-splicing fitness does the source give for C82A A111C A120U C150G C169U U176A here?
The reverse-splicing fitness was 0.00407.

Which reverse-splicing fitness does the source give for C82A A111C A145G C150U C169G U176C here?
The reverse-splicing fitness was 0.0162.

With C82A A111C A145G C150U C169G U176G as the variant, how does the reverse-splicing fitness read?
Its reverse-splicing fitness is 0.00687.

For C82A A111C A145G C150U C169G U176A, which reverse-splicing fitness is on record?
The reverse-splicing fitness was 0.0115.

For C82A A111C A145G C150U C169A U176G, which reverse-splicing fitness is on record?
The reverse-splicing fitness was 0.00833.

For C82A A111C A145G C150U C169A U176C, which reverse-splicing fitness is on record?
Its reverse-splicing fitness is 0.0148.

Which reverse-splicing fitness does the source give for C82A A111C A145G C150U C169A U176A here?
Its reverse-splicing fitness is 0.0141.

With C82A A111C C150U C169A U176A as the variant, how does the reverse-splicing fitness read?
Its reverse-splicing fitness is 0.0146.

For C82A A111C C150U C169A U176C, which reverse-splicing fitness is on record?
Its reverse-splicing fitness is 0.0125.

With C82A A111C C150U C169A U176G as the variant, how does the reverse-splicing fitness read?
Its reverse-splicing fitness is 0.00801.

Which reverse-splicing fitness does the source give for C82A A111C A145C C150G C169G U176G here?
The reverse-splicing fitness was 0.00714.

Which reverse-splicing fitness does the source give for C82A A111C A145C C150G C169G U176A here?
The reverse-splicing fitness was 0.00778.

With C82A A111C A145C C150G C169G U176C as the variant, how does the reverse-splicing fitness read?
Its reverse-splicing fitness is 0.00759.

With C82A A111C A145U C150A C169U U176A as the variant, how does the reverse-splicing fitness read?
The reverse-splicing fitness was 0.0155.

Which reverse-splicing fitness does the source give for C82A A111C A145U C150A C169U U176G here?
The reverse-splicing fitness was 0.00853.

For C82A A111C A145U C150A C169U U176C, which reverse-splicing fitness is on record?
The reverse-splicing fitness was 0.0167.

With C82A A111C A145C C150A C169G U176C as the variant, how does the reverse-splicing fitness read?
The reverse-splicing fitness was 0.0219.

For C82A A111C A145C C150A C169G U176A, which reverse-splicing fitness is on record?
The reverse-splicing fitness was 0.0264.

With C82A A111C A145C C150A C169G U176G as the variant, how does the reverse-splicing fitness read?
The reverse-splicing fitness was 0.00943.

With C82A A111C A120U A145U C169U U176G as the variant, how does the reverse-splicing fitness read?
The reverse-splicing fitness was 0.002.

With C82A A111C A120U A145U C169U U176A as the variant, how does the reverse-splicing fitness read?
Its reverse-splicing fitness is 0.00262.

Which reverse-splicing fitness does the source give for C82A A111C A120U A145U C169U U176C here?
Its reverse-splicing fitness is 0.00253.

With C82A A111C A120U A145U C169G U176A as the variant, how does the reverse-splicing fitness read?
The reverse-splicing fitness was 0.00336.

For C82A A111C A120U A145U C169G U176C, which reverse-splicing fitness is on record?
The reverse-splicing fitness was 0.00308.

For C82A A111C A120U A145U C169G U176G, which reverse-splicing fitness is on record?
Its reverse-splicing fitness is 0.00259.

Which reverse-splicing fitness does the source give for C82A A111C A145C C150A C169U U176C here?
The reverse-splicing fitness was 0.0109.

Which reverse-splicing fitness does the source give for C82A A111C A145C C150A C169U U176A here?
The reverse-splicing fitness was 0.0138.

With C82A A111C A145C C150A C169U U176G as the variant, how does the reverse-splicing fitness read?
The reverse-splicing fitness was 0.00856.

Which reverse-splicing fitness does the source give for C82A A111C A145G C150U C169U U176A here?
Its reverse-splicing fitness is 0.0138.

With C82A A111C A145G C150U C169U U176C as the variant, how does the reverse-splicing fitness read?
Its reverse-splicing fitness is 0.0143.

For C82A A111C A145G C150U C169U U176G, which reverse-splicing fitness is on record?
The reverse-splicing fitness was 0.00766.

With C82A A111C A120U A145U C169A U176A as the variant, how does the reverse-splicing fitness read?
The reverse-splicing fitness was 0.00312.

Which reverse-splicing fitness does the source give for C82A A111C A120U A145U C169A U176G here?
The reverse-splicing fitness was 0.00264.

Which reverse-splicing fitness does the source give for C82A A111C A120U A145U C169A U176C here?
Its reverse-splicing fitness is 0.00315.

With C82A A111C A145U C150G U176G as the variant, how does the reverse-splicing fitness read?
Its reverse-splicing fitness is 0.00428.

Which reverse-splicing fitness does the source give for C82A A111C A145U C150G U176C here?
The reverse-splicing fitness was 0.0161.

With C82A A111C A145U C150G U176A as the variant, how does the reverse-splicing fitness read?
The reverse-splicing fitness was 0.00919.

For C82A A111C A145C C150U, which reverse-splicing fitness is on record?
Its reverse-splicing fitness is 0.0486.

With C82A A111C A145C C150G as the variant, how does the reverse-splicing fitness read?
The reverse-splicing fitness was 0.0226.

Which reverse-splicing fitness does the source give for C82A A111C A145C C150A here?
Its reverse-splicing fitness is 0.0144.

Which reverse-splicing fitness does the source give for C82A A111C A145G C150A C169U U176C here?
Its reverse-splicing fitness is 0.0158.

For C82A A111C A145G C150A C169U U176A, which reverse-splicing fitness is on record?
Its reverse-splicing fitness is 0.0149.

With C82A A111C A145G C150A C169U U176G as the variant, how does the reverse-splicing fitness read?
Its reverse-splicing fitness is 0.00882.

With C82A A111C A145G C169A U176G as the variant, how does the reverse-splicing fitness read?
The reverse-splicing fitness was 0.0069.

With C82A A111C A145G C169A U176C as the variant, how does the reverse-splicing fitness read?
The reverse-splicing fitness was 0.029.

For C82A A111C A145G C169A U176A, which reverse-splicing fitness is on record?
Its reverse-splicing fitness is 0.0211.

For C82A A111C A120U A145U C150U C169U, which reverse-splicing fitness is on record?
Its reverse-splicing fitness is 0.00409.

With C82A A111C A145C C150A C169A U176G as the variant, how does the reverse-splicing fitness read?
The reverse-splicing fitness was 0.0103.

Which reverse-splicing fitness does the source give for C82A A111C A145C C150A C169A U176C here?
Its reverse-splicing fitness is 0.0113.

For C82A A111C A145C C150A C169A U176A, which reverse-splicing fitness is on record?
Its reverse-splicing fitness is 0.015.

For C82A A111C A120U A145U C169U, which reverse-splicing fitness is on record?
The reverse-splicing fitness was 0.00402.

Which reverse-splicing fitness does the source give for C82A A111C A120U A145U C169A here?
Its reverse-splicing fitness is 0.00297.

Which reverse-splicing fitness does the source give for C82A A111C A120U A145U C169G here?
The reverse-splicing fitness was 0.00439.

With C82A A111C A145U C150G C169G U176C as the variant, how does the reverse-splicing fitness read?
The reverse-splicing fitness was 0.0061.
